T1: monkey PD-1 with mFc (monkey)
T1 construct: also called monkey PD-1-mFc; monkey PD-1 dimer
T1 chain: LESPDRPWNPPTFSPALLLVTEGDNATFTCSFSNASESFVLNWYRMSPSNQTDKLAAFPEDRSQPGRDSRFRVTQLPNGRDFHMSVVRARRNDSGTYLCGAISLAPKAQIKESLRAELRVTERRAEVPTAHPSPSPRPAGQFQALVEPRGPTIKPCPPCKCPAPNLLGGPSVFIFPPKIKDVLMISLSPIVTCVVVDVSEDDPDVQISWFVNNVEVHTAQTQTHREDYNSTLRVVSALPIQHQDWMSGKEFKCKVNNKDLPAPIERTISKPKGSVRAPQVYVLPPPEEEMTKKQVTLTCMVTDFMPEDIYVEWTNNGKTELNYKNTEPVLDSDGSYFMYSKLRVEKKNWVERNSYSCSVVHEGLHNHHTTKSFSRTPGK


Columns and labels:
[1] = target: T2, full length human PD-1 on HEK293/hPD-1 cells (human, UniProt Q15116 25-288); assay: FACS, 100 nM mAb, HEK293/hPD-1 cells;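 note: antibodies incubated with cells for 15-30 min on ice, bound antibody detected through a secondary F(ab′)2 by flow cytometry, with parental HEK293 cells tested in parallel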
[2] = target: T3, recombinant human PD-1 dimer expressed with a C-terminal mouse IgG2a Fc tag (human); assay: competition ELISA: 1.5 nM hPD-1-mFc to coated hPD-L1-hFc
T3 construct: also called hPD-1-mFc

[3] = target: T1, monkey PD-1 with mFc; assay: SPR, captured mAb, 25 C;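 note: purified anti-PD-1 antibodies tested on Biacore 4000 or T200 instruments, rate constants obtained via 1:1 binding model fit, with KD as kd/ka and half-life as ln2/(60·kd)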
[4] = target: T1, monkey PD-1 with mFc; assay: SPR, captured mAb, 37 C;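 note: Real-time Biacore surface plasmon resonance biosensor readout of PD-1 reagent binding to purified anti-PD-1 monoclonal antibodies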
[5] = target: PD-1 chimera: extracellular domain of human PD-1 with trans-membrane and cytoplasmic domains of human CD300a, … (human, UniProt Q9UGN4 181-299, limits assumed); assay: cell-based or functional assay
[6] = target: T4, recombinant human PD-1 expressed with a C-terminal human IgG1 Fc tag (human); assay: SPR Biacore 3000: 100 nM hPD-1.hFc + 500 nM mAb to captured hPD-L1.mFc;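 note: inhibition study with anti-PD-1 mAbs, SPR responses tracked in real time and read at the close of each step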
T4 construct: also called hPD-1-hFc; hPD1-hFc

[7] = target: T5, recombinant human PD-L1 expressed with a C-terminal mouse IgG2a Fc tag (human); assay: SPR Biacore 3000: 500 nM mAb alone (no hPD-1.hFc) over captured hPD-L1.mFc surface, control
T5 construct: also called hPD-L1-mFc; hPD-L1.mFc

[8] = target: T2, full length human PD-1 on HEK293/hPD-1 …; assay: FACS dose response, HEK293/hPD-1 cells
[9] = target: T2, full length human PD-1 on HEK293/hPD-1 …; assay: FACS, 100 nM mAb
[10] = target: T6, dimeric biotinylated human PD-1 protein with a C-terminal human Fc tag (human, biotinylated (sites not given)); assay: competition ELISA: 200 pM biot-hPD-1-hFc to coated hPD-L1-mFc
T6 construct: also called biot-hPD-1-hFc

[11] = target: T3, recombinant human PD-1 dimer expressed …; assay: BLI Octet: 100 nM hPD-1-mFc + 500 nM mAb to captured hPD-L1-hFc

Row | MFI [1] | % blocking at 200 nM antibody [2] | IC50 [2] | 100 nM Monkey PD-1-mFc Bound (RU) [3] | Kd [3] | t1/2 [3] | 100 nM Monkey PD-1-mFc Bound (RU) [4] | Kd [4] | t1/2 [4] | Emax mean [%] @ 100 nM [5] | binding of the mixture (RU) [6] | 500 nM of anti-PD-1 monoclonal antibody (RU) [7] | % Blocking [6] | EC50 [8] | Max Geom. Mean MFI @ 100 nM [8] | Concentration (M) of Antibody at 150% activation [5] | ratio of MFI HEK293/hPD-1 to HEK293 parental cells [9] | % blocking at 50 nM antibody [10] | IC50 [10] | Binder | also measured
1 | 17500 MFI | 93% | 1.3 nM | 122 RU | 1.24 nM | 46 min | 86 RU | 4.38 nM | 8 min | 178% | 2 RU | 3 RU | – | – | – | – | – | – | – | H4xH8992P (antibody, V domains shown, human IgG4 Fc with 2 or more amino acid changes (US20100331527)) VH: EVQLVESGGGLVQPGRSLRLSCVASGFALHDYAMHWVRQVPGKGLEWVSSISWNSGVIGYADSLKGRFTISRDNAKNSLYLQMNSLRAEDTALYYCAKGSGSYYVSWFDPWGQGTLVTVSS VL: not shown | –
2 | 28900 MFI | 88% | 1.3 nM | 126 RU | 0.21 nM | 100 min | 83 RU | 0.7 nM | 23 min | 217% | 0 RU | 1 RU | 100% | – | – | – | – | – | – | H4xH8999P (antibody, V domains shown, human IgG4 Fc with 2 or more amino acid changes (US20100331527)) VH: QLQLQESGPGLVQPSETLSLTCTVSGDSISSTAYHWDWIRQPPGKGLEWIGTITYNGNTYFNPSLKSRVTISVDTSKNQFSLKLLSMTAAETAVFYCARHLGYNSDFFPFDFWGQGTLVTVSS VL: not shown | –
3 | 8610 MFI | 98% | 1.3 nM | 31 RU | 1.97 nM | 129 min | 36 RU | 3.17 nM | 45 min | 180% | -1 RU | -2 RU | – | 1.4 nM | 29200 MFI | 1.79e-08 M | – | – | – | H4H9019P (antibody, V domains shown, fully human; H4H prefix (human IgG4 Fc)) VH: EVQLVESGGGVVRPGGSLRLSCAASGFTFDDYGMSWVRQVPGKGLEWVSGISWNDGKTVYAESVKGRFIISRDNAKNSLYLEMNSLRAEDTALYYCARDWQYLIERYFDYWGQGTLVTVSS VL: not shown | –
4 | 9980 MFI | 98% | 1 nM | 52 RU | 1.91 nM | 104 min | 46 RU | 6.06 nM | 23 min | 166% | 0 RU | 1 RU | 100% | 0.48 nM | 34100 MFI | 1.1e-08 M | 91.9 | 96% | 0.39 nM | H4xH9120P2 (antibody, V domains shown, human IgG4 Fc with 2 or more amino acid changes (US20100331527)) VH: QVQLVQSGAEVKRPGASVKVSCKASGYTFTSFYMYWVRQAPGQGLEWMGIINPSDGSTSNAQKFQGRVTMTRDTSTSTVYMELSSLRSEDTAVYYCARRVAGDIFDIWGQGTMVTVSS VL: not shown | koff [3]: 0.000112 s⁻¹; kon [3]: 58400 M⁻¹ s⁻¹; koff [4]: 0.000502 s⁻¹; kon [4]: 82900 M⁻¹ s⁻¹
5 | 19100 MFI | 95% | 1.1 nM | – | – | – | – | – | – | 170% | – | – | – | 1.37 nM | 16400 MFI | 4.09e-08 M | 71 | 99% | 0.23 nM | H2aM7794N (antibody, V domains shown, human variable regions, mouse IgG2a Fc; also called H2M7794N) VH: QLQLQESGPDLVKPSDTLSLTCTVSDDSISSTTYYWAWIRQPPGKGLEWIGSMSYNGNNYYNPSLKSRVAISAGTSQKQFSLKLTSVTAADTAVYHCARHLGYNGNWYPFDFWGQGILVTVSS VL: not shown | % Blocking [11]: 114%; binding of the mixture (nm) [11]: -0.01 nm

— patent US20150203579A1 (Regeneron, published 2015)
